Experimental data: the supplement of paper PMC11246515
± gives the standard deviation of the averaged measurements.

Assay: total protein half-life in vivo (active degradation + dilution); higher = more stable protein
[1] = E. coli NCM3722 delta-clpP delta-lon delta-hslV, growth: N-lim chemostat, doubling time 6 h
[2] = E. coli NCM3722 delta-clpP, growth: N-lim chemostat, doubling time 6 h
[3] = E. coli NCM3722 delta-hslV, growth: N-lim chemostat, doubling time 6 h
[4] = wild type E. coli NCM3722, growth: C-lim chemostat, doubling time 6 h
[5] = wild type E. coli NCM3722, growth: C-lim chemostat, doubling time 12 h
[6] = wild type E. coli NCM3722, growth: N-lim chemostat, doubling time 12 h
[7] = wild type E. coli NCM3722, growth: P-lim chemostat, doubling time 6 h
[8] = wild type E. coli NCM3722, growth: P-lim chemostat, doubling time 12 h
[9] = E. coli NCM3722 delta-lon, growth: N-lim chemostat, doubling time 6 h
[10] = E. coli NCM3722 delta-smpB, growth: N-lim chemostat, doubling time 6 h
[11] = wild type E. coli NCM3722, growth: C-lim chemostat, doubling time 3 h
[12] = wild type E. coli NCM3722, growth: N-lim chemostat, doubling time 6 h

Sequence: MSSRVLTPDVVGIDALVHDHQTVLAKAEGGVVAVFANNAPAFYAVTPARLAELLALEEKLARPGSDVALDDQLYQEPQAAPVAVPMGKFAMYPDWQPDADFIRLAALWGVALREPVTTEELASFIAYWQAEGKVFHHVQWQQKLARSLQIGRASNGGLPKRDVNTVSEPDSQIPPGFRG [P0A8J2]
- total protein half-life in vivo [1]: 4.71 ± 0.31 h
- total protein half-life in vivo [2]: 4.26 h
- total protein half-life in vivo [3]: 1.78 ± 0.14 h
- total protein half-life in vivo [4]: 3.49 h
- total protein half-life in vivo [5]: 5.15 ± 0.3 h
- total protein half-life in vivo [6]: 2.93 ± 0.94 h
- total protein half-life in vivo [7]: 2.68 ± 0.39 h
- total protein half-life in vivo [8]: 5.6 ± 0.28 h

Sequence: MNTVCTHCQAINRIPDDRIEDAAKCGRCGHDLFDGEVINATGETLDKLLKDDLPVVIDFWAPWCGPCRNFAPIFEDVAQERSGKVRFVKVNTEAERELSSRFGIRSIPTIMIFKNGQVVDMLNGAVPKAPFDSWLNESL [P0AGG4]
- total protein half-life in vivo [1]: 5.02 ± 0.31 h
- total protein half-life in vivo [2]: 2.89 ± 0.54 h
- total protein half-life in vivo [3]: 2.37 ± 0.6 h
- total protein half-life in vivo [9]: 5.32 ± 0.43 h
- total protein half-life in vivo [10]: 2.48 ± 1.3 h
- total protein half-life in vivo [11]: 1.6 ± 0.2 h
- total protein half-life in vivo [4]: 3.09 ± 0.67 h
- total protein half-life in vivo [5]: 5.03 ± 1.5 h
- total protein half-life in vivo [12]: 2.26 ± 0.083 h
- total protein half-life in vivo [6]: 3.44 ± 0.91 h
- total protein half-life in vivo [7]: 2.24 ± 0.53 h
- total protein half-life in vivo [8]: 4.54 ± 0.14 h

Sequence: MSFDLIIKNGTVILENEARVVDIAVKGGKIAAIGQDLGDAKEVMDASGLVVSPGMVDAHTHISEPGRSHWEGYETGTRAAAKGGITTMIEMPLNQLPATVDRASIELKFDAAKGKLTIDAAQLGGLVSYNIDRLHELDEVGVVGFKCFVATCGDRGIDNDFRDVNDWQFFKGAQKLGELGQPVLVHCENALICDELGEEAKREGRVTAHDYVASRPVFTEVEAIRRVLYLAKVAGCRLHVCHVSSPEGVEEVTRARQEGQDVTCESCPHYFVLDTDQFEEIGTLAKCSPPIRDLENQKGMWEKLFNGEIDCLVSDHSPCPPEMKAGNIMKAWGGIAGLQSCMDVMFDEAVQKRGMSLPMFGKLMATNAADIFGLQQKGRIAPGKDADFVFIQPNSSYVLTNDDLEYRHKVSPYVGRTIGARITKTILRGDVIYDIEQGFPVAPKGQFILKHQQ
- total protein half-life in vivo [1]: 4.05 h
- total protein half-life in vivo [9]: 3.35 h
- total protein half-life in vivo [11]: 1.23 ± 0.55 h
- total protein half-life in vivo [4]: 2.5 ± 0.8 h
- total protein half-life in vivo [5]: 2.38 ± 0.29 h
- total protein half-life in vivo [8]: 5.33 h

Sequence: MDDLTAQALKDFTARYCDAWHEEHKSWPLSEELYGVPSPCIISTTEDAVYWQPQPFTGEQNVNAVERAFDIVIQPTIHTFYTTQFAGDMHAQFGDIKLTLLQTWSEDDFRRVQENLIGHLVTQKRLKLPPTLFIATLEEELEVISVCNLSGEVCKETLGTRKRTHLASNLAEFLNQLKPLL [P0A8U0]
- total protein half-life in vivo [1]: 4.63 ± 0.19 h
- total protein half-life in vivo [3]: 3.71 ± 0.25 h
- total protein half-life in vivo [9]: 5.62 ± 1.2 h
- total protein half-life in vivo [10]: 4.15 ± 0.19 h
- total protein half-life in vivo [11]: > 4 h
- total protein half-life in vivo [4]: 4.21 ± 1.8 h
- total protein half-life in vivo [5]: 9.71 h
- total protein half-life in vivo [12]: 3.72 h
- total protein half-life in vivo [6]: 7.43 ± 1.4 h
- total protein half-life in vivo [7]: 5.7 ± 0.28 h
- total protein half-life in vivo [8]: 12.7 ± 2.7 h

Sequence: MNQIFMVIFLVLSGFIVGNVWSDRGWQKKWAERDAAALSQEVNAQFAARIIEQGRTIARDEAVKDAQQKSAEISARAAYLSDSVNQLRAEAKKYAIRLDAAKHTADLAAAVRGKTTKTAEGMLTNMLGDIAAEAQLYAEIADERYIAGVTCQQIYESLRDKKHQM
- total protein half-life in vivo [8]: 9.42 h

Sequence: MRDIQMVLERWGAWAANNHEDVTWSSIAAGFKGLITSKVKSRPQCCDDDAMIICGCMARLKKNNSDLHDLLVDYYVVGMTFMSLAGKHCCSDGYIGKRLQKAEGIIEGMLMALDIRLEMDIVVNNSN
- total protein half-life in vivo [1]: 2.96 h
- total protein half-life in vivo [5]: 8.73 h
- total protein half-life in vivo [7]: 5.67 h
- total protein half-life in vivo [8]: 10.4 ± 0.22 h

Sequence: MIIATAGHVDHGKTTLLQAITGVNADRLPEEKKRGMTIDLGYAYWPQPDGRVPGFIDVPGHEKFLSNMLAGVGGIDHALLVVACDDGVMAQTREHLAILQLTGNPMLTVALTKADRVDEARVDEVERQVKEVLREYGFAEAKLFITAATEGRGMDALREHLLQLPEREHASQHSFRLAIDRAFTVKGAGLVVTGTALSGEVKVGDSLWLTGVNKPMRVRALHAQNQPTETANAGQRIALNIAGDAEKEQINRGDWLLADVPPEPFTRVIVELQTHTPLTQWQPLHIHHAASHVTGRVSLLEDNLAELVFDTPLWLADNDRLVLRDISARNTLAGARVVMLNPPRRGKRKPEYLQWLASLARAQSDADALSVHLERGAVNLADFAWARQLNGEGMRELLQQPGYIQAGYSLLNAPVAARWQRKILDTLATYHEQHRDEPGPGRERLRRMALPMEDEALVLLLIEKMRESGDIHSHHGWLHLPDHKAGFSEEQQAIWQKAEPLFGDEPWWVRDLAKETGTDEQAMRLTLRQAAQQGIITAIVKDRYYRNDRIVEFANMIRDLDQECGSTCAADFRDRLGVGRKLAIQILEYFDRIGFTRRRGNDHLLRDALLFPEK
- total protein half-life in vivo [1]: 6.2 ± 0.45 h
- total protein half-life in vivo [2]: 4.93 ± 0.33 h
- total protein half-life in vivo [3]: 5.22 ± 0.44 h
- total protein half-life in vivo [9]: 5.39 ± 0.23 h
- total protein half-life in vivo [10]: 4.57 ± 0.11 h
- total protein half-life in vivo [11]: 2.77 ± 0.057 h
- total protein half-life in vivo [4]: 5.56 ± 0.59 h
- total protein half-life in vivo [5]: 9.26 ± 0.52 h
- total protein half-life in vivo [12]: 4.97 ± 0.16 h
- total protein half-life in vivo [6]: 8.6 ± 0.22 h
- total protein half-life in vivo [7]: 4.25 ± 0.27 h
- total protein half-life in vivo [8]: 6.81 ± 0.26 h

Sequence: MNMKLKTLFAAAFAVVGFCSTASAVTYPLPTDGSRLVGQNQVITIPEGNTQPLEYFAAEYQMGLSNMMEANPGVDTFLPKGGTVLNIPQQLILPDTVHEGIVINSAEMRLYYYPKGTNTVIVLPIGIGQLGKDTPINWTTKVERKKAGPTWTPTAKMHAEYRAAGEPLPAVVPAGPDNPMGLYALYIGRLYAIHGTNANFGIGLRVSHGCVRLRNEDIKFLFEKVPVGTRVQFIDEPVKATTEPDGSRYIEVHNPLSTTEAQFEGQEIVPITLTKSVQTVTGQPDVDQVVLDEAIKNRSGMPVRLN [P0AAX8]
- total protein half-life in vivo [1]: 6.81 ± 1.6 h
- total protein half-life in vivo [2]: 5.74 ± 0.27 h
- total protein half-life in vivo [3]: 6.22 ± 0.09 h
- total protein half-life in vivo [9]: 6.15 ± 0.32 h
- total protein half-life in vivo [10]: 6.37 ± 0.75 h
- total protein half-life in vivo [11]: 2.9 ± 0.083 h
- total protein half-life in vivo [4]: 5.76 ± 0.11 h
- total protein half-life in vivo [5]: 11.6 ± 0.4 h
- total protein half-life in vivo [12]: 5.98 ± 0.64 h
- total protein half-life in vivo [6]: 13.7 ± 1.3 h
- total protein half-life in vivo [7]: 5.606 ± 0.037 h
- total protein half-life in vivo [8]: 12.3 ± 0.94 h

Sequence: MIKKIGVLTSGGDAPGMNAAIRGVVRSALTEGLEVMGIYDGYLGLYEDRMVQLDRYSVSDMINRGGTFLGSARFPEFRDENIRAVAIENLKKRGIDALVVIGGDGSYMGAMRLTEMGFPCIGLPGTIDNDIKGTDYTIGFFTALSTVVEAIDRLRDTSSSHQRISVVEVMGRYCGDLTLAAAIAGGCEFVVVPEVEFSREDLVNEIKAGIAKGKKHAIVAITEHMCDVDELAHFIEKETGRETRATVLGHIQRGGSPVPYDRILASRMGAYAIDLLLAGYGGRCVGIQNEQLVHHDIIDAIENMKRPFKGDWLDCAKKLY [P0A796]
- total protein half-life in vivo [1]: 4.43 ± 0.51 h
- total protein half-life in vivo [2]: 3.9 ± 0.11 h
- total protein half-life in vivo [3]: 4.03 ± 0.12 h
- total protein half-life in vivo [9]: 4.146 ± 0.0074 h
- total protein half-life in vivo [10]: 3.89 ± 0.13 h
- total protein half-life in vivo [11]: 3 ± 0.15 h
- total protein half-life in vivo [4]: 5.83 ± 0.099 h
- total protein half-life in vivo [5]: 10.3 ± 0.71 h
- total protein half-life in vivo [12]: 3.64 ± 0.18 h
- total protein half-life in vivo [6]: 5.77 ± 0.15 h
- total protein half-life in vivo [7]: 5.69 ± 0.36 h
- total protein half-life in vivo [8]: 11.7 ± 0.9 h
